Experiment: glucose transfer (glycosylation) activity for mogrol, product analysed by LC-IT-TOF-MS
Assay type: biochemical
Conditions: same enzyme conditions (0.2 mM mogrol, 2 mM UDP-glucose, 30° C., 3 hours)
Procedure: Purification was carried out using the HisTag of the recombinant protein according to an ordinary method, and glucose transfer activity for mogrol prepared by hydrolyzing a Siraitia grosvenorii extract (Takemoto, T. et al. (1983) YAKUGAKU ZASSHI 103(11), 1167-1173) was evaluated. The enzyme reaction composition was 0.2 mM mogrol as a glucose acceptor, 2 mM UDP-glucose as a glucose donor, and 50 mM calcium phosphate buffer (pH 7.5); an enzyme solution was added thereto, which was then reacted at 30° C. for 3 hours; and the product was analyzed using LC-IT-TOF-MS (Shimadzu Corporation).
Stevia-derived UGT85C2 and UGT73E1 were expressed in the same manner as in the above method. The product amount was measured under the above enzyme conditions to determine relative activity by dividing it by the expressed protein amount. As a result, the relative activities of stevia-derived UGT85C2 and UGT73E1 when the activity of SgUGT74-943 was set to 1 were 0.35 and 0.22, respectively. The glycosylation activity of Siraitia grosvenorii-derived SgUGT74-943 was confirmed to be nearly 3 times higher than those of stevia-derived UGT85C2 and UGT73E1 (FIG. 4).

| Molecule | relative activity (product amount divided by expressed protein amount) when the activity of SgUGT74-943 was set to 1 |
| --- | --- |
| UGT73E1: steviol glycosyltransferase derived from stevia, known to glycosylate mogrol (protein, UniProt Q6VAA9 1-495, looked up) UDP-glycosyltransferase 73E1: MSPKMVAPPTNLHFVLFPLMAQGHLVPMVDIARILAQRGATVTIITTPYHANRVRPVISRAIATNLKIQLLELQLRSTEAGLPEGCESFDQLPSFEYWKNISTAIDLLQQPAEDLLRELSPPPDCIISDFLFPWTTDVARRLNIPRLVFNGPGCFYLLCIHVAITSNILGENEPVSSNTERVVLPGLPDRIEVTKLQIVGSSRPANVDEMGSWLRAVEAEKASFGIVVNTFEELEPEYVEEYKTVKDKKMWCIGPVSLCNKTGPDLAERGNKAAITEHNCLKWLDERKLGSVLYVCLGSLARISAAQAIELGLGLESINRPFIWCVRNETDELKTWFLDGFEERVRDRGLIVHGWAPQVLILSHPTIGGFLTHCGWNSTIESITAGVPMITWPFFADQFLNEAFIVEVLKIGVRIGVERACLFGEEDKVGVLVKKEDVKKAVECLMDEDEDGDQRRKRVIELAKMAKIAMAEGGSSYENVSSLIRDVTETVRAPH | 0.22 |
| UGT85C2: steviol glycosyltransferase derived from stevia, known to glycosylate mogrol (protein, UniProt Q6VAB0 1-481, looked up) UDP-glycosyltransferase 85C2: MDAMATTEKKPHVIFIPFPAQSHIKAMLKLAQLLHHKGLQITFVNTDFIHNQFLESSGPHCLDGAPGFRFETIPDGVSHSPEASIPIRESLLRSIETNFLDRFIDLVTKLPDPPTCIISDGFLSVFTIDAAKKLGIPVMMYWTLAACGFMGFYHIHSLIEKGFAPLKDASYLTNGYLDTVIDWVPGMEGIRLKDFPLDWSTDLNDKVLMFTTEAPQRSHKVSHHIFHTFDELEPSIIKTLSLRYNHIYTIGPLQLLLDQIPEEKKQTGITSLHGYSLVKEEPECFQWLQSKEPNSVVYVNFGSTTVMSLEDMTEFGWGLANSNHYFLWIIRSNLVIGENAVLPPELEEHIKKRGFIASWCSQEKVLKHPSVGGFLTHCGWGSTIESLSAGVPMICWPYSWDQLTNCRYICKEWEVGLEMGTKVKRDEVKRLVQELMGEGGHKMRNKAKDWKEKARIAIAPNGSSSLNIDKMVKEITVLARN | 0.35 |
